Data published in article PMC3324464, “The GPI Anchor Signal Sequence Dictates the Folding and Functionality of the Als5 Adhesin from Candida albicans” (PLoS ONE, 2012).
Entries after “also recorded” stand apart in the source; their conditions may differ.

T1: GST-Als5 (Candida albicans, UniProt Q5A8T7 20-1327)
T1 construct: source: E. coli BL21, purified (glutathione-agarose); not shown: GST, N-terminal, kept
T1 sequence: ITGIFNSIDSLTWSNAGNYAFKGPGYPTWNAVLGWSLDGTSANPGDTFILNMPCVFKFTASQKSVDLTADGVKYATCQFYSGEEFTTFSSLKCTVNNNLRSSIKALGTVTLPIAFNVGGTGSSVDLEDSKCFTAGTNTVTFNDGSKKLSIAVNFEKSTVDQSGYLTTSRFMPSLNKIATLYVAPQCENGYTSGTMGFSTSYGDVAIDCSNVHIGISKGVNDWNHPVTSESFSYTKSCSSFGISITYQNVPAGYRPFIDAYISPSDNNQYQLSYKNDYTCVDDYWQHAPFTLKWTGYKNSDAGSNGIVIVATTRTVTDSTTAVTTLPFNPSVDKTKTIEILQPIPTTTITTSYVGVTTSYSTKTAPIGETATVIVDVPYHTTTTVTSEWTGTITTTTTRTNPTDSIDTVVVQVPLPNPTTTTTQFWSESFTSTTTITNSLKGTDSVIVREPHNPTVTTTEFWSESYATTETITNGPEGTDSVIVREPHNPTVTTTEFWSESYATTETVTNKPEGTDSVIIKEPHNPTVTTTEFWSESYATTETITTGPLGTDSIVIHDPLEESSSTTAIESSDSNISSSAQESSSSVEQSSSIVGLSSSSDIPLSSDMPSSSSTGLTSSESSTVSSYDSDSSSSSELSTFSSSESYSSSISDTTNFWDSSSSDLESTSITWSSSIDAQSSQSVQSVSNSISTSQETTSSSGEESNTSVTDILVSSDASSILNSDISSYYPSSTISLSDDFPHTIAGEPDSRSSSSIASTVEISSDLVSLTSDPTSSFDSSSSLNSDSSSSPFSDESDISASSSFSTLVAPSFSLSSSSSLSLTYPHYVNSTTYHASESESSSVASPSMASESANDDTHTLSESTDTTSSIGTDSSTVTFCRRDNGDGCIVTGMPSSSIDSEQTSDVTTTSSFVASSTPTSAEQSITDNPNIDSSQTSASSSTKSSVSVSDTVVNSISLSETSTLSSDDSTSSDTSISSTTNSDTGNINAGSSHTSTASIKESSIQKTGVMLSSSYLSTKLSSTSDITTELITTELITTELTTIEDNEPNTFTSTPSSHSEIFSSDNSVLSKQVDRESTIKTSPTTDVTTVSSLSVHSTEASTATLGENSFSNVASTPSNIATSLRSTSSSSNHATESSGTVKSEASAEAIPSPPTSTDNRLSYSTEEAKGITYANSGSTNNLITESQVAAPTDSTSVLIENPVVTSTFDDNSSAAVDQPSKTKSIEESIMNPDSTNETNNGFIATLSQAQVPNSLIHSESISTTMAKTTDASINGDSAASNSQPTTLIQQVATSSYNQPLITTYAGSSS


Legend:
GST-Als5 [1] = biological target: T1, GST-Als5; assay: other fluorescence titration; tryptophan fluorescence of 0.02 mg/ml protein, peptide titrated in; one-site saturation model; 42 °C; conditions: both partners purified
GST-Als5 [2] = biological target: T1, GST-Als5; assay: other fluorescence titration; tryptophan fluorescence of 0.02 mg/ml protein, peptide titrated in; one-site saturation model; 52 °C (secondary structure of both proteins mildly perturbed at this temperature); conditions: both partners purified
GST-Als5-SS [3] = biological target: T2, GST-Als5-SS (Candida albicans, UniProt Q5A8T7 20-1326, N-terminal GST tag (pGEX-6P-2) not cleaved, omitted here; expressed in E. coli, unglycosylated. The 4044 bp insert implies the full ORF, including the N-terminal secretion signal, although the figure); assay: as above; conditions: both partners purified
GST-Als5 [4] = biological target: T1, GST-Als5; assay: other fluorescence titration; van't Hoff plots of the association constants from the fluorescence titrations at different temperatures; ΔH° from the slope; conditions: both partners purified
GST-Als5-SS [5] = biological target: T2, GST-Als5-SS; assay: as above; conditions: both partners purified
GST-Als5 [6] = biological target: T1, GST-Als5; assay: other fluorescence titration; conditions: both partners purified
[7] = Aggregation by transmission electron microscopy; type: physicochemical; conditions: 37 °C, 2 weeks; 0.4 µM / 0.09 mg/ml (method)
Experimental: Transmission Electron Microscopy (TEM)
TEM studies were carried out on a JEOL 2100F. The proteins (0.09 mg/ml) were incubated at 37 °C for 2 weeks prior to the measurements. The proteins were spotted on a carbon-coated copper grid and positively stained with 2% uranyl acetate. The sample was then dried and examined by TEM using a 210 kV accelerating voltage.
Figure 5 Transmission electron microscope images showing aggregation by GST-Als5. […] The scale bar in each panel represents 100 nm. Left panel: 10,000X magnification. Right panel: 25,000X magnification.
(A) Prediction of β-aggregation potential for the GPI anchor attachment signal sequence (SS). The prediction of β-aggregation potential for the SS was done using TANGO (residues 1328–1347). Also shown is the propensity for α-helix, β-turn and β-sheet formation in the unfolded polypeptide chain as predicted by TANGO. […] (B). Transmission electron microscope images showing aggregation by SS and SS in the presence of GST-Als5. The samples, SS (40.0 µM), GST-Als5 (0.4 µM) and GST-Als5 (0.4 µM) + SS (40.0 µM) were incubated as 37 °C for two days before TEM images were recorded.

Molecule | Kd (GST-Als5 [1]) | Kd (GST-Als5 [2]) | Kd (GST-Als5-SS [3]) | dH (GST-Als5 [4]) | dH (GST-Als5-SS [5]) | Kd (GST-Als5 [6]) | aggregation (in words) [7]
EHAHTPR (source: synthetic peptide (USV Ltd.)) | 34 nM | 11 nM | 8 nM | 33.4 kcal/mol | 8.15 kcal/mol | – | –
AYKSLMT (source: synthetic peptide (USV Ltd.)) | 9 nM | 12 nM | 2 nM | -0.803 kcal/mol | 18.6 kcal/mol | 13 nM | –
KLRIPSV (source: synthetic peptide (USV Ltd.)) | 4 nM | 7 nM | 5 nM | 22.5 kcal/mol | 15.3 kcal/mol | – | –
GST-Als5-SS: GST fusion of Als5 with the GPI-anchor attachment signal sequence, expressed in E. coli (protein, left off: GST, N-terminal, kept) ITGIFNSIDSLTWSNAGNYAFKGPGYPTWNAVLGWSLDGTSANPGDTFILNMPCVFKFTASQKSVDLTADGVKYATCQFYSGEEFTTFSSLKCTVNNNLRSSIKALGTVTLPIAFNVGGTGSSVDLEDSKCFTAGTNTVTFNDGSKKLSIAVNFEKSTVDQSGYLTTSRFMPSLNKIATLYVAPQCENGYTSGTMGFSTSYGDVAIDCSNVHIGISKGVNDWNHPVTSESFSYTKSCSSFGISITYQNVPAGYRPFIDAYISPSDNNQYQLSYKNDYTCVDDYWQHAPFTLKWTGYKNSDAGSNGIVIVATTRTVTDSTTAVTTLPFNPSVDKTKTIEILQPIPTTTITTSYVGVTTSYSTKTAPIGETATVIVDVPYHTTTTVTSEWTGTITTTTTRTNPTDSIDTVVVQVPLPNPTTTTTQFWSESFTSTTTITNSLKGTDSVIVREPHNPTVTTTEFWSESYATTETITNGPEGTDSVIVREPHNPTVTTTEFWSESYATTETVTNKPEGTDSVIIKEPHNPTVTTTEFWSESYATTETITTGPLGTDSIVIHDPLEESSSTTAIESSDSNISSSAQESSSSVEQSSSIVGLSSSSDIPLSSDMPSSSSTGLTSSESSTVSSYDSDSSSSSELSTFSSSESYSSSISDTTNFWDSSSSDLESTSITWSSSIDAQSSQSVQSVSNSISTSQETTSSSGEESNTSVTDILVSSDASSILNSDISSYYPSSTISLSDDFPHTIAGEPDSRSSSSIASTVEISSDLVSLTSDPTSSFDSSSSLNSDSSSSPFSDESDISASSSFSTLVAPSFSLSSSSSLSLTYPHYVNSTTYHASESESSSVASPSMASESANDDTHTLSESTDTTSSIGTDSSTVTFCRRDNGDGCIVTGMPSSSIDSEQTSDVTTTSSFVASSTPTSAEQSITDNPNIDSSQTSASSSTKSSVSVSDTVVNSISLSETSTLSSDDSTSSDTSISSTTNSDTGNINAGSSHTSTASIKESSIQKTGVMLSSSYLSTKLSSTSDITTELITTELITTELTTIEDNEPNTFTSTPSSHSEIFSSDNSVLSKQVDRESTIKTSPTTDVTTVSSLSVHSTEASTATLGENSFSNVASTPSNIATSLRSTSSSSNHATESSGTVKSEASAEAIPSPPTSTDNRLSYSTEEAKGITYANSGSTNNLITESQVAAPTDSTSVLIENPVVTSTFDDNSSAAVDQPSKTKSIEESIMNPDSTNETNNGFIATLSQAQVPNSLIHSESISTTMAKTTDASINGDSAASNSQPTTLIQQVATSSYNQPLITTYAGSS | – | – | – | – | – | – | showed very poor aggregation; also recorded: showed no propensity for aggregation
